Experimental findings from the DeepSol protein solubility set are described below.

The data set can be described thus: soluble on expression in E. coli; label from the status in PepcDB or PDB records.
Take “MKIRSPIVSVLGHVDHGKTTLLDHIRGSAVASREAGGITQHIGATEIPMDVIEGICGDFLKKFSIRETLPGLFFIDTPGHEAFTTLRKRGGALADLAILIVDINEGFKPQTQEALNILRMYRTPFVVAANKIDRIHGWRVHEGRPFMETFSKQDIQVQQKLDTKVYELVGKLHEEGFESERFDRVTDFASQVSIIPISAITGEGIPELLTMLMGLAQQYLREQLKIEEDSPARGTILEVKEETGLGMTIDAVIYDGILRKDDTIAMMTSKDVISTRIRSLLKPRPLEEMRESRKKFQKVDEVVAAAGIKIVAPGIDDVMAGSPLRVVTDPEKVREEILSEIEDIKIDTDEAGVVVKADTLGSLEAVVKILRDMYVPIKVADIGDVSRRDVVNAGIALQEDRVYGAIIAFNVKVIPSAAQELKNSDIKLFQGNVIYRLMEEYEEWVRGIEEEKKKKWMEAIIKPASIRLIPKLVFRQSKPAIGGVEVLTGVIRQGYPLMNDDGETVGTVESMQDKGENLKSASRGQKVAMAIKDAVYGKTIHEGDTLYVDIPENHYHILKEQLSGDLTDEELDLMDKIAEIKRKKNPDWGMKAPF”: the “soluble on expression in E. coli” value is “soluble”.
Consider “MGSDKIHHHHHHMEDKQKVIFIEDDPNLGLIIVLALQSKGYEVCYANTLSGIQDMIEKDCPNILLLDLEVGNQNALDYLPFIRSKHPSLPVLIASSHNEGEEITRCYEAGANHYTKKPYDIQEIDFLIQRFCKKGSPISNSISIGDYQLELSTHKLFYKQEQSKTLSPKDFKLFYLLSEQLNQPVSREKLFHEIWDGQEVHDSLNNSISRLRKLLEKDTTLSIDAVKGVGYILSKKDQLSSS”, for which the “soluble on expression in E. coli” value is “not soluble”.
As to “MSLAHKFDPSKIKKLDDPSRLELFDPEKVLKEFGLKEGMTVLDVGTGAGFYLPYLSKMVGEKGKVYAIDVQEEMVNYAWEKVNKLGLKNVEVLKSEENKIPLPDNTVDFIFMAFTFHELSEPLKFLEELKRVAKPFAYLAIIDWKKEERDKGPPPEEVYSEWEVGLILEDAGIRVGRVVEVGKYCFGVYAMIVKQEEENPLMNVPFKIPPGEGHHHHHH”, the “soluble on expression in E. coli” value is given as “soluble”.
To “SNAMANFEDFLTLDLRIGTVTHAEEFKEARVPAIRLEIDFGELGMKQSSAQITKRYNPEDLIGQQIVAVVNFPPKRVAGFKSEVLVLGGVPEAGDVVLLQPNMELPNGTKIS” belongs “soluble”.
As to “MSRGYYRTEEEIVQDKVLHRDPGIIEENYASKPPSRRSSSNTNPDSLVNQKHAQPLPSPLHSPVKSVTGSSKNQSPKMAPVRSNSRGSSASSEEDIGTRSFSISVLKDSGTKVEIMLKAHGLRKKKGFINSLVTVFKKPSQPSRLLSNGKFTEFVLTEHALRFLLEVKTDKKKKKGNGNRLDTFLCEVKRFPSDVNPDSAEFEVLEPASGEAFILLTLIKTGNLSTNWKEFLDTHGTLDVSTI”, the “soluble on expression in E. coli” value is listed as “soluble”.
To “MGHHHHHHSHMHSLATAAPVPTTLAQVDREKIYQWINELSSPETRENALLELSKKRESVPDLAPMLWHSFGTIAALLQEIVNIYPSINPPTLTAHQSNRVCNALALLQCVASHPETRSAFLAAHIPLFLYPFLHTVSKTRPFEYLRLTSLGVTGALVKTDEQEVINFLLTTEIIPLCLRIMESGSELSKTVATFILQKILLDDTGLAYICQTYERFSHVAMILGKMVLQLSKEPSARLLKHVVRCYLRLSDNPRFSDLTFCWSSFQRK” belongs “not soluble”; to “MLIRSAKPEDAEFIGSIRVAAWQAAYRGFMPDTYLASLDPGANLDELRAALRAENPPFTLRIAETEGQPIAFSILGKPRYNADQSIVELWALNVHPTHWRKGAGQQLVRQVLLDAKEQKFVSVELWCIQGNLAAQRLYEICGFVPNSQVRTTSSLTGYPLHELAYTYAL”, “not soluble”.
Turning to “MPRHRISGINWLAHYNELIRFWTRKTGSRGDVEDATHDVITKLLESNVSTISSPRSYLHSSIRNRLTDSYRQNKILDLVPIHDLPEDSHPLQPNDPVTHTCTMQLLTALKEALQELPLKCRQVFIWHRLEGYSQTEIAEKLDISVNMVEKYMIRATRHLRDRLQDHIPD”, the “soluble on expression in E. coli” value is reported as “not soluble”.
In the case of “MAHHHHHHMVSKTRKQRQKKKAGMQAHDGVLPPVVPSVPKSVHLKKTRPNMKGKMKIRLGLESPIDIYNGFEERKGVIWRCPTCAKACRVVGFCVDCASGVKSKSHAGQLSGRASTKKEAAQTRAPKLRIKEKSRVVKLRRKK”, the “soluble on expression in E. coli” value was “soluble”.
Take “SDTRQLPNRPVEVTIMGLGCAQMGNLYRVTPYEESKGAFDKAWESGMRYFDTAPFYGYTRSERRLGTMVTEHDRGDYTLSTKVGRVMVPDETVGPEEDAYIAPLPFRPVYDYSYDGILRSFEASQQRLGILKPDILYVHDIGSHTHGEKHQHYWEQLTTGGGFRALGKLRDEGSTGAVGLGVNEWEIINDAMDVFDIDVAMLAGRYTLLEQQSLAFMNRCAESGVAIVVAGAFNSGILAGNRKFNYADAPADILKRVDALHNVCEELGVSLQAAALQFPLAHPASVTVVSGARNAQQLASNIEWFEQSIPDEFWSELHK”: the “soluble on expression in E. coli” value is listed as “not soluble”.
For “MLRSSLLPFSYLYEKIINFRNTLYDKGFLKIKKLPVPVISVGNLSVGGSGKTSFVMYLADLLKDKRVCILSRGYKRKSKGTLIVSEYGNLKVSWEEAGDEPYLMAKLLPHVSVVASEDRYKGGLLALEKLSPEVFILDDGFQHRKLHRDLNILLLKKKDLKDRLLPAGNLREPLKEIRRADALVLTYQEVEPFEFFTGKPTFKMFREFCCLLNSDFEEVPFDILKEREVIAFSGLGDNGQFRKVLKNLGIKVKEFMSFPDHYDYSDFTPEEGEIYLTTPKDLIKLQGYENVFALNFKVKLEREEKLKKLIYRIFYLEHHHHHH”, the “soluble on expression in E. coli” value was “soluble”.
With “MSLSMKSELRKQVLHEMKAISQEQKQAIDQALTERLLHHPFYQEAKVIATYLSFSHEFQTRELIEQALKDGKKVLIPKTYPKGRMEFVAYDPQQLVKTSFALLEPQGDVEVVDASQIDLIHVPGLAFTTKGYRIGYGGGYYDRYLEHFSGRTLSTIYPCQIQDFIPEEGHHHHHH” the entry was “not soluble”.
On to “MIIMYAIGIGDNKEEVLKAYEKLKEEGIEVELIDNPKLLVDKLLDGEIDGAVRGSLSSSKVILYLRERIGKFYRASILKNPFTNGIFLLSPVGIDDISEDKNERIKDKIRIIEFASNFLKNYNIKAKVAVLSGGRLGDLGRNKVVDETIYEAEEIVEHFKGNVDIIHNGILIEEYLKDGYNIIIAVDGITGNLIFRCLGLICKIPGYGAVILSDKNVNFIDTSRNANWERYYNAIKFLIGGDFG”, for which the “soluble on expression in E. coli” value was “soluble”.
As to “MSLANLKVNLYGMEFLNPIMTAAGPGAKDGALCQEAAKGGAGAICTKTISVLPADVPRPCMAKTNSGFLNTELWSELPKEQWIEEEYKKVKETGLPVIVSMGYSAEQIAEVAPLVKPYADAVELSTHYVGTDVAPIVNALKAAKAVLDVPVFMKMSPHTDIQTIAKAVEEAGADGLVMINSFGPCMAIDVNTGYPIMGSKAGYGWLSGAPIRPLAIRCIYEASQVVNIPIIGVGGITCGKDVAEMMMAGASAVQVCTEAILKGPSIYGKIAKELNEFLDENGYADVNEIKGLTHKKMAARGFRTHSVAPVVDEGHHHHHH”, the “soluble on expression in E. coli” value is reported as “soluble”.
To “GAMEDKVDAIREAIARNPQEIFQYVRLSQVKRDDKVLGYRVSPGKDPVLFESIGLQDGDMAVALNGLDLTDPNVMNTLFQSMNEMTEMSLTVERDGQQHDVYIQF” belongs “soluble”; to “EKALSKQYLQTAKDKITSLKNLKVIAITGSFGKTSTKNFLLQILQTTFNAHASPKSVNTLLGLANDINQNLDDRSEIYIAEAGARNKGDIKEITCLIEPHLVVVAEVGEQHLEYFKTLENICETKAELLDSKRLEKAFCYSVEKIKPYAPKDSPLIDYSSLVKNIQSTLKGTSFEMLIGSVWERFETKVLGEFSAYNIASAILIAKHLGLETERIKRLVLELNPIAHRLQLLEVNQKIIIDDSFNGNLKGMLEGIRLASLHKGRKVIVTPGLVESNTESNEALAQKIDGVFDVAIITGELNSKTIASQLKTPQKILLKDKAQLENILQATTIQGDLILFANDAPNYI”, “not soluble”.
With “GPGSMPPAPAPPFSSVSQCLSALLPPTAFSLLPLTHTHTHTHTHRTCTHIIFSEPHIVFYCVCPFTRCHRRRPLPSPLSLSLPQHTTLSTAINKHEAEVVLDWSMSRLARALAKPFTVPVAMCTRHVAAMDEPLKRHIDAYAARGEDITIAVWREYVDGQRALLPYRWTKFRSEVAYLTSGQMAITDLTFADLLVFIRFLTKCLFIFIVAVMVGRRSVFPSLEPTSPFVEEIVKNWQPNRLHGVAGAEYMACDQAAAAGYGHR” the entry was “soluble”.
For “MSDMEKPWKEEEKREVLAGHARRQAPQAVDKGPVTGDQRISVTVVLRRQRGDELEAHVERQAALAPHARVHLEREAFAASHGASLDDFAEIRKFAEAHGLTLDRAHVAAGTAVLSGPVDAVNQAFGVELRHFDHPDGSYRSYVGDVRVPASIAPLIEAVLGLDTRPVARPHFRLRRRAEGEFEARSQSAAPTAYTPLDVAQAYQFPEGLDGQGQCIAIIELGGGYDETSLAQYFASLGVSAPQVVSVSVDGATNQPTGDPNGPDGEVELDIEVAGALAPGAKIAVYFAPNTDAGFLNAITTAVHDPTHKPSIVSISWGGPEDSWAPASIAAMNRAFLDAAALGVTVLAAAGDSGSTDGEQDGLYHVDFPAASPYVLACGGTRLVASAGRIERETVWNDGPDGGSTGGGVSRIFPLPSWQERANVPPSANPGAGSGRGVPDVAGNADPATGYEVVIDGETTVIGGTAAVAPLFAALVARINQKLGKPVGYLNPTLYQLPPEVFHDITEGNNDIANRARIYQAGPGWDPCTGLGSPIGIRLLQALLPSASQAQP”, the “soluble on expression in E. coli” value is “soluble”.
To “MAHHHHHHMGTLEAQTQGPGSMSVSAAPSATSIDRYRRITKLGEGTYGEVYKAIDTVTNETVAIKRIRLEHEEEGVPGTAIREVSLLKELQHRNIIELKSVIHHNHRLHLIFEYAENDLKKYMDKNPDVSMRVIKSFLYQLINGVNFCHSRRCLHRDLKPQNLLLSVSDASETPVLKIGDFGLARAFGIPIRQFTHEIITLWYRPPEILLGSRHYSTSVDIWSIACIWAEMLMKTPLFPGDSEIDQLFKIFEVLGLPDDTTWPGVTALPDWKQSFPKFRGKTLKRVLGALLDDEGLDLLTAMLEMDPVKRISAKNALEHPYFSHNDFDP” belongs “soluble”.
